Results from patent publication US20180022794A1 (INSERM INSTITUT NATIONAL DE LA SANTE ET DE LA RECHERCHE …, published 2018).
Blank lines part the entries; values can stand above or below the binder they belong to.

Columns and labels:
Test in all cases: binding kinetics, method not stated (Table 1)
RhoB Q63L = target: T1, RhoB Q63L (UniProt P62745 1-193, limits assumed)
T1 construct: also called RhoB Q63L (2SHA); constitutively active RhoB mutant

Rac Q61L = Rac Q61L (UniProt P63000 1-189)
RhoA Q63L = target: T2, RhoA Q63L (UniProt P61586 1-190, limits assumed)
T2 construct: also called RhoA Q63L (2SHA); constitutively active RhoA mutant
T2 sequence (P61586 1-190 Q63L limits assumed): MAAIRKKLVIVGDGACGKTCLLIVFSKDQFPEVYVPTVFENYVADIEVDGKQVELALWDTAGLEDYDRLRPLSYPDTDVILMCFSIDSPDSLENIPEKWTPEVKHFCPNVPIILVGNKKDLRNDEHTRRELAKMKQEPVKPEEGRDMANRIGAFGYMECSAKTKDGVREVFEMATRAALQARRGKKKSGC

RhoC Q63L = target: T3, RhoC Q63L (UniProt P08134 1-190, limits assumed)
T3 construct: also called RhoC Q63L (2SHA); constitutively active RhoC mutant
T3 sequence (P08134 1-190 Q63L limits assumed): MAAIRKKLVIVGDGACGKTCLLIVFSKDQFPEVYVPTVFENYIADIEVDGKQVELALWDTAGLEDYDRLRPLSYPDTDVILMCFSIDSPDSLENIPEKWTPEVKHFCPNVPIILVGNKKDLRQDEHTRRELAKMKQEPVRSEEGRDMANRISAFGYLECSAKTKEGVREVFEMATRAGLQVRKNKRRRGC

T1 sequence (P62745 1-193 Q63L limits assumed): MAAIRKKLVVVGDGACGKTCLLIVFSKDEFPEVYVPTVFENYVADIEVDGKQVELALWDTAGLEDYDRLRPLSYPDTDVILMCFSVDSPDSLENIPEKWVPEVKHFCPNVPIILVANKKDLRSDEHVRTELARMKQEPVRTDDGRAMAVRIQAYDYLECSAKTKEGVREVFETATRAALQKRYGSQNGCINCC

- Kd (RhoB Q63L): 1.57 nM
- koff (RhoB Q63L): 0.000359 s⁻¹
- kon (RhoB Q63L): 224000 M⁻¹ s⁻¹
- Kd (Rac Q61L): 0.33 nM
- koff (Rac Q61L): 0.000255 s⁻¹
- kon (Rac Q61L): 753000 M⁻¹ s⁻¹
B1: H12 hs2dAb (VHH)
VHH: VQLQASGGGFVQPGGSLRLSCAASGDGSRIYAMGWFRQAPGKEREFVSAISWEQDWEHYYADSVKGRFTISRDNSKNTVYLQMNSLRAEDTATYYCAAFMTPHRNLTSMYWGQGTQVTVSS
notes: Humanized synthetic single domain antibody; Soluble form was used in ELISA and immunofluorescence and detected through a myc tag; also called clone H12; H12 antibody

- Kd (RhoA Q63L): 0.84 nM
- koff (RhoA Q63L): 0.000686 s⁻¹
- kon (RhoA Q63L): 814000 M⁻¹ s⁻¹
- Kd (RhoB Q63L): 5.21 nM
- koff (RhoB Q63L): 0.0024 s⁻¹
- kon (RhoB Q63L): 462000 M⁻¹ s⁻¹
- Kd (RhoC Q63L): 0.524 nM
- koff (RhoC Q63L): 0.000901 s⁻¹
- kon (RhoC Q63L): 1.72e+06 M⁻¹ s⁻¹
B3: 5SNP48 hs2dAb (VHH)
VHH: VQLQASGGGFVQPGGSLRLSCAASGTSWFTEVMGWFRQAPGKEREFVSAISGLHDVGTYYADSVKGRFTISRDNSKNTVYLQMNSLRAEDTATYYCAALDKWYTKAMDARKDYWGQGTQVTVSS

- Kd (RhoA Q63L): 1.31 nM
- koff (RhoA Q63L): 0.0008 s⁻¹
- kon (RhoA Q63L): 1.05e+06 M⁻¹ s⁻¹
- Kd (RhoC Q63L): 2.32 nM
- koff (RhoC Q63L): 0.000625 s⁻¹
- kon (RhoC Q63L): 1.45e+06 M⁻¹ s⁻¹
B5: B6 hs2dAb (VHH)
VHH: VQLQASGGGFVQPGGSLRLSCAASGYGSTIETMGWFRQAPGKEREFVSAISRAPGPSQYYADSVKGRFTISRDNSKNTVYLQMNSLRAEDTATYYCAPINNRTMQDSMFLWNYWGQGTQVTVSS
notes: also called hs2dAb B6

Second part, the binder before the results:

B2: 4SNP61 hs2dAb (VHH)
VHH: VQLQASGGGFVQPGGSLRLSCAASGFTSTSTVMGWFRQAPGKEREFVSAISSAHTMDTYYADSVKGRFTISRDNSKNTVYLQMNSLRAEDTATYYCAPAPMLGQMITQPALPYWGQGTQVTVSS
- Kd (RhoA Q63L): 1.21 nM
- koff (RhoA Q63L): 0.0013 s⁻¹
- kon (RhoA Q63L): 1.1e+06 M⁻¹ s⁻¹
- Kd (RhoB Q63L): 4.68 nM
- koff (RhoB Q63L): 0.0033 s⁻¹
- kon (RhoB Q63L): 722000 M⁻¹ s⁻¹
- Kd (RhoC Q63L): 5.3 nM
- koff (RhoC Q63L): 0.0046 s⁻¹
- kon (RhoC Q63L): 875000 M⁻¹ s⁻¹

B4: 5SNP65 hs2dAb (VHH)
VHH: VQLQASGGGFVQPGGSLRLSCAASGATYEGEAMGWFRQAPGKEREFVSAISSYPSVISYYADSVKGRFTISRDNSKNTVYLQMNSLRAEDTATYYCAYWVNHEGTIREIYWGQGTQVTVSS
- Kd (RhoA Q63L): 0.6 nM
- koff (RhoA Q63L): 0.000522 s⁻¹
- kon (RhoA Q63L): 870000 M⁻¹ s⁻¹
- Kd (RhoB Q63L): 2.36 nM
- koff (RhoB Q63L): 0.000599 s⁻¹
- kon (RhoB Q63L): 253000 M⁻¹ s⁻¹
- Kd (RhoC Q63L): 0.608 nM
- koff (RhoC Q63L): 0.001 s⁻¹
- kon (RhoC Q63L): 1.71e+06 M⁻¹ s⁻¹
